The values that follow come from patent publication US20190284266A1.

A value given as a limit tells only on which side of the number the result lay.

Assay [1] deals with hyperphosphorylated (pathological) tau from human Alzheimer's disease brain, phosphorylated at serine 396 (human) (UniProt P10636). Briefly: binding of pathological versus non-pathological tau, brain material (Table 5).
The target of assay [2] is hyperphosphorylated human tau P301L (0N4R) of rTg4510 mice, 64 kDa and 70 kDa species (human) (UniProt P10636). Described as above.
The target of assay [3] is total tau of Alzheimer's disease brain extract (human) (UniProt P10636). Put plainly: immunodepletion of AD brain extract with antibody-coated beads, Tau5 western blot. For orientation: A western blot detects proteins with antibodies after separation by electrophoresis.
In assay [4] the target is tau phosphorylated at Serine 199/202 in Alzheimer's disease brain extract (human) (UniProt P10636). Briefly: immunodepletion of AD brain extract with 5 µg antibody on beads, P-S199/202 western blot.
For assay [5], the target named is total tau of Alzheimer's disease brain extract (human) (UniProt P10636). Briefly: immunodepletion of AD brain extract with antibody on Protein G magnetic beads; remaining total tau by Tau5 western blot, normalised to gapdh.
Assay [6] deals with tau phosphorylated at Serine 422 in Alzheimer's disease brain extract (human) (UniProt P10636). Briefly: immunodepletion of AD brain extract with antibody-coated beads, P-S422 western blot.
Assay [7] concerns the target hyperphosphorylated (pathological) tau from human Alzheimer's disease brain, phosphorylated at serine 396 (human) (UniProt P10636). Briefly: immunodepletion of AD brain extract with antibody-coated beads, pS396 western blot.
Assay [8] deals with tau phosphorylated at Serine 199/202 in Alzheimer's disease brain extract (human) (UniProt P10636). Put plainly: immunodepletion of AD brain extract with antibody-coated beads, P-S199/202 western blot.
The target of assay [9] is hyperphosphorylated (pathological) tau from human Alzheimer's disease brain, phosphorylated at serine 396 (human) (UniProt P10636). Briefly: MSD fluid phase inhibition: antibody pre-incubated with AD-P3, capture on coated mouse C10-2 (competitor); two-site fit, low affinity part (predominant); two-site fit, low affinity part (predominant).
Assay [10] concerns the target hyperphosphorylated human tau P301L (0N4R) of rTg4510 mice, 64 kDa and 70 kDa species (human) (UniProt P10636). Briefly: cell-based or functional assay.
Assay [11] has as its target hyperphosphorylated (pathological) tau from human Alzheimer's disease brain, phosphorylated at serine 396 (human) (UniProt P10636). Put plainly: immunodepletion of AD brain extract with antibody on Protein G magnetic beads; remaining P-S396 tau by western blot, normalised to gapdh.
Assay [12] shares this target. Put plainly: immunodepletion of AD brain extract, pS396 western blot, 75 ng antibody.
The target is the same in assay [13]. Briefly: MSD fluid phase inhibition: antibody pre-incubated with AD-P3, capture on coated mouse C10-2 (competitor); two-site fit, high affinity part; two-site fit, high affinity part (less than 25% of total binding).
Assay [14] shares this target. Briefly: MSD fluid phase inhibition of Ptau antigen capture on C10-2 coated plate (competitor C10-2); lower end of the printed range 10-20 nM.
Assay [15] has the same target. Put plainly: MSD fluid phase inhibition of AD-P3 capture, two-site fit.
For assay [16] the target is unchanged. Put plainly: MSD fluid phase inhibition of Ptau antigen capture on C10-2 coated plate (competitor C10-2); upper end of the printed range 10-20 nM.
Assay [17] shares this target. Briefly: MSD fluid phase inhibition of Ptau antigen capture on C10-2 coated plate (competitor C10-2).
For assay [18], the target named is Antibody N32S. Briefly: MSD peptide inhibition: 1 ng/ml antibody pre-incubated with graded Ptau 386-408 (pS396), then wells coated with Ptau 386-408 (pS396/pS404) (competitor).
The target in assay [19] is Antibody N32S, A101T. The assay is described as above.

With 2.10.3 antibody, the AD/ctrl (ratio of binding to AD brain tau over control brain tau) in assay [1] amounted to 5 fold. Further, the TG/wt (ratio of binding to transgenic over wild type mouse brain tau) in [2] is 2 fold. Besides, the percent of total tau removed in assay [3] is less than 24%. Also, the max percent reduction of pS199/202 tau in assay [4] stood at 52%. In addition, the EC50 (read off the curve) in assay [5] amounted to 0.3 µg. In assay [6], this substance came in with an amount of antibody required to remove 50% of the pS422 tau of 0.42 µg and a percent of pS422 tau removed greater than 90%. Moreover, in assay [7], the amount of antibody for half of the max effect amounted to 0.63 µg; the max effect, percent of pS396 tau removed worked out at 60%; the percent of pS396 tau removed was 55%.
On to “Anti-Tau Therapeutic Antibody NI-105-4E4”, for which the TG/wt (ratio of binding to transgenic over wild type mouse brain tau) in [2] was 1 fold.
Take Antibody C10-2 (humanized C10-2): in assay [8], the amount of antibody for 50% of the effect is 0.34 µg and the percent of pS199/202 tau removed amounted to 69%. Also, the IC50 (usually the concentration at which inhibition is half-maximal) in [9] is 630 nM. In [10], this substance gave a decrease in aggregated tau in HEK293 cells expressing hTau-P301L seeded with Tg4510 homogenate pre-incubated with antibody (Cisbio tau aggregation assay) of 40%; a reduction of P3 and S1p induced tau seeding in rTg4510 cortical neurons (Cisbio tau aggregation assay) of 23%. In [1], the AD/ctrl (ratio of binding to AD brain tau over control brain tau) was greater than 100 fold. In addition, the TG/wt (ratio of binding to transgenic over wild type mouse brain tau) in assay [2] was 118 fold. Also, the EC50 (read off the curve) in [11] turned out to be 0.2 µg. In assay [12], this substance had a percent decrease in the pS396 signal at 75 ng antibody of less than 6%. For the same substance, the IC50 in assay [13] is 14 nM. In addition, in assay [6], the amount of antibody required to remove 50% of the pS422 tau turned out to be 0.27 µg and the percent of pS422 tau removed was greater than 90%. Also, the IC50 in assay [14] is greater than 10 nM. For the same substance, in assay [7], the amount of antibody for half of the max effect was determined as 0.3 µg and the max effect, percent of pS396 tau removed worked out at 88%. The substance also had a share of high affinity binding in the total binding in [15] of less than 25%. Besides, the IC50 in assay [16] is less than 20 nM.
In the case of HJ8.5 (antibody), the TG/wt (ratio of binding to transgenic over wild type mouse brain tau) in assay [2] was 51 fold.
As to IPN002 (antibody), the TG/wt (ratio of binding to transgenic over wild type mouse brain tau) in assay [2] turned out to be 37 fold.
In assay [17], PHF-13 (antibody) registered an IC50 of 500 to 1000 nM.
With Ptau 386-408 (pS396) peptide, the IC50 in assay [18] was 50 nM; in assay [19] it was 34 nM.
